According to article PMC4281067, “New Insight into Secreted Ribonuclease Structure: Binase Is a Natural Dimer” (PLoS ONE, 2014):

Biological target: the molecule itself
Experiment: SDS-PAGE (SDS-resistant dimer band) with LC-MS/MS of the excised bands; lyophilised pure binase on 15% SDS-PAGE with 0.1% SDS; 12 and 25 kDa bands, both detected by anti-binase immunoblot and in-gel RNase activity; 25 kDa band not fully lost with 2% SDS or 4-8 M urea; bands trypsin-digested and identified by LC-MS/MS

B1: binase (guanyl-preferring RNase secreted by Bacillus pumilus), wild-type enzyme designated as "native" binase (enzyme, Bacillus pumilus (former B. intermedius), UniProt P00649 54-162, looked up)
chain: AVINTFDGVADYLIRYKRLPDNYITKSQASALGWVASKGNLAEVAPGKSIGGDVFSNREGRLPSASGRTWREADINYVSGFRNADRLVYSSDWLIYKTTDHYATFTRIR
notes: binase, secreted RNase of Bacillus pumilus (former B. intermedius); single chain of 109 amino acids, molecular weight 12.3 kDa; secreted enzyme isolated from the medium; binase has no sulfhydryl groups; also called B. intermedius RNase; wild-type binase; source: isolated from the medium of B. pumilus 7P, purified (MonoS), lyophilised; also unpurified B. pumilus culture fluid
stoichiometry N: 2
